Measurements as given in patent US5962253A, “Oxidative decarboxylation of peptides catalyzed by flavoprotein EpiD” (Boehringer Ingelheim International GmbH, priority 1996, dated 1999).
Non-standard residues stand in square brackets, D forms with d. No end group written: not given here. hCys = N[C@@H](CCS)C(=O)O

How the values were obtained:
[1] = target: T1, flavoprotein EpiD (Staphylococcus epidermidis, UniProt P30197); assay: Incubation of peptide libraries with EpiD, ES-MS and neutral loss mass spectrometry; format: biochemical, Staphylococcus epidermis; details: ES-MS and neutral loss scans
T1 construct: made in house; host or cells: E. coli K38 (pGP1-2, pT7-5epiD)
Method: Heptapeptide sublibraries with one variable amino acid residue (wherein the variable amino acid residue can be any one of the 20 common amino acids Ala, Arg, Asn, Asp, Cys, Gln, Glu, Gly, His, Ile, Leu, Lys, Met, Phe, Pro, Ser, Thr, Trp, Tyr, or Val) at positions 1-7 of the peptide substrate S^1 FNSYCC^7 (SEQ ID NO: 2) were synthesized and incubated with EpiD. Peptides were identified by their masses using product ion scans and neutral loss scans and by comparison of the mass spectra obtained after various incubation times. The heptapeptides with a single amino acid substitution at positions 1-4 were substrates of EpiD (Table 2). At positions 5-7 of the peptide, not all amino acid residues were possible, so the last three amino acids determined the substrate specificity for EpiD (Table 2). […]
Peptide libraries were dissolved to a concentration of 1-2 mg/ml in 20 mM Tris/HCl buffer (pH 8.0) containing 3 mM dithiothreitol. […] Neutral loss scans were recorded after 3 h of incubation.
Electrospray and Tandem Mass Spectrometry--Electrospray mass spectra (Bruins, A. P., et al., Anal. Chem. 59:2642-2646 (1987); Covey, T. R., et al., Rapid Commun. Mass Spectrom. 2:249-256 (1988)) were recorded on a triple quadrupole mass spectrometer API III with a mass range of m/z 10-2400 equipped with a nebulizer-assisted electrospray ("ion spray") source (Sciex, Thornbill, Ontario, Canada). […]

[2] = target: EpiD (Staphylococcus epidermidis, UniProt P30197); details: cited from earlier work; for Reaction with EpiD: reducing conditions, reversed phase chromatography and ES-MS
[3] = target: T1, flavoprotein EpiD; assay: EpiD enzyme assay, oxidative decarboxylation of single peptides (reversed phase chromatography, ES-MS); format: biochemical, Staphylococcus epidermis; set-up: key to Reaction with EpiD: +: reaction with EpiD; -: no reaction with EpiD occurred, this indicates that using the given assay conditions, no reaction product was detected; details: for Reaction with EpiD: single peptide determinations, 0.5-1 h at 37° C., pH 8.0, 3 mM dithiothreitol; for substrate of EpiD / reaction with EpiD (in words): single peptides
Source text: For the determination of the minimal size of the substrate, synthetic peptides with increasingly larger deletions of the amino terminus were used (Table 1). Reaction products were identified by their increasing hydrophobicity, increased absorption at 260 nm in 0.1% trifluoroacetic acid/H2 O/acetonitrile (FIGS. 19A and 19B), and the mass decrease of 46 Da as compared with the unmodified peptides. […] For a further study of the substrate specificity of EpiD, the heptapeptide SFNSYCC (SEQ ID NO: 2) was used. The serine and cysteine residues of the peptide SFNSYCC (SEQ ID NO: 2) form the COOH-terminal bicyclus of mature epidermin, and the possibility could not be excluded that amino acid exchanges in this peptide have an influence on the reaction with EpiD.
The method of the invention, which provides for the oxidative decarboxylation of a peptide, can be carried out in vitro under the following conditions, although it will be clear to those of ordinary skill in the art that the parameters given herein for carrying out the enzymatic reaction may be varied. The enzymatic reaction can be carried out at a temperature of 37° C. in 20 mMTris/HCl buffer (pH 8.0) containing 3 mM dithiothreitol, 1-2 μg of EpiD (the concentration of which is determined according to the method of Bradford, Anal. Biochem. 72:248-254 (1976)), and 10-50 μg of peptide, in a total volume of 1 ml. The enzymatic reaction is carried out for between 0.5 and 1 h.
Purification of EpiD and Enzyme Assay--EpiD was purified as described previously using E. coli expression plasmid pT7-5apiD (Kupke, T. et al, J. Bacteriol. 174:5354-5361 (1992)). The concentration of the EpiD solution was determined according to Bradford (Bradford, M. M., Anal. Biochem. 72:248-254 (1976)); the concentrations of the precursor peptide solutions were estimated by the absorbance at 205 nm using an extinction coefficient of 31 for a protein solution of 1 mg/ml (Janson, J. C., & Ryden, L., Methods Enzymol. 193:441-455 (1990)); the synthetic peptic substrates were weighed out. The enzyme was assayed for 0.5-1 h at 37° C. in 20 mM Tris/HCl buffer (pH 8.0) containing 3 mM dithiothreitol, 1-2 μg of EpiD, and 10-25 μg of precursor peptide or 50 μg of synthetic peptide in a total volume of 1 ml. The reaction mixture was then separated by reversed phase chromatography using a μRPC C2/C18 SC 2.1/10 column (Pharmacia Biotech Inc.). Peptides were eluted with a linear gradient of 0-50% acetronitrile, 0.1% trifluoroacetic acid in 3.8 ml with a flow rate of 200 μl/min. The absorbance was measured simultaneously at 214, 260, and 280 nm. The peptides were collected by the peak fractionation method, dried with a vacuum concentrator, stored at -70° C., dissolved in 30% acetonitrile, and analyzed by ES-MS.

[4] = Determination of the isoelectric point by isoelectric focusing and immunoblot; format: physicochemical; details: most basic band used
Method: Therefore, the modified peptides should be more basic than the educts. In order to verify this hypothesis, the isoelectric points of the products and the educts were determined. […] All of the bands were more basic than the educts, and for determination of the isoelectric points, the most basic bands were used. In the case of EpiAR-1Q -46 Da, the most basic band was the most intense band.
The peptide mixture Serva No. 39211 was used as an isoelectric focusing standard. Isoelectric focusing was carried out according to the instruction manual of Serva. The focused peptides were blotted on nitrocellulose and detected with an anti-MBP-EpiA antiserum (Kupke, T., et al., FEMS Lett. 112:43-48 (1993)) using the ECL system (Amersham Corp.).

T1 sequence (P30197 whole entry): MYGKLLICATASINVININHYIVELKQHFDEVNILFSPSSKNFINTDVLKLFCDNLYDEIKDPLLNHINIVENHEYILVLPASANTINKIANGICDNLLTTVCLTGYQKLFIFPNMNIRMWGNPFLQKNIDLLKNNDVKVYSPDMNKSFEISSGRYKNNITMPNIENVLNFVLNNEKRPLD
EpiD, sequence (P30197 whole entry): as above

Compound | Reaction with EpiD [3] | substrate of EpiD / reaction with EpiD (in words) [3] | further results
SFNSMCC |  |  | substrate of EpiD / reaction product in library (in words) [1]: weak
[Zn+2] [Zn^2+, reference compound] |  |  | effect on the EpiD reaction [2]: inhibited
Synthetic proepidermin: chemically synthesized proepidermin (amino acids +1 to +22 of EpiA) (IASKFICTPGCAKTGSFNSYCC) | + |  | 
EpiAR-1Q: mutated EpiA with a mutation in the cleavage sequence of the EpiA leader (MEAVKEKNDLFNLDVKVNAKESNDSGAEPRIASKFICTPGCAKTGSFNSYCC) | + |  | isoelectric point [4]: 5.0 pH; Reaction with EpiD [2]: reacts
Proepidermin: COOH-terminal proepidermin fragment of EpiA (amino acids +1 to +22) (IASKFICTPGCAKTGSFNSYCC) | + |  | Reaction with EpiD [2]: reacts
SFNSYGC | - |  | 
EpiAC + 22S (MEAVKEKNDLFNLDVKVNAKESNDSGAEPRIASKFICTPGCAKTGSFNSYCC) | - | No reaction occurred | 
K-EpiA (MEAVKEKNDLFNLDVKVNAKESNDSGAEPRIASKFICTPGCAKTGSFNSYCC) | + |  | 
EpiAS + 19A (MEAVKEKNDLFNLDVKVNAKESNDSGAEPRIASKFICTPGCAKTGSFNSYCC) | + | substrate for oxidative decarboxylation | 
SFNSYCHCy (SFNSYC[hCys]; cysteine pairing not given here) [peptide SFNSYC with COOH-terminal homocysteine residue] | - | not substrates of EpiD | 
EpiAdesC^+22 (MEAVKEKNDLFNLDVKVNAKESNDSGAEPRIASKFICTPGCAKTGSFNSYC) | - | not all peptides with a COOH-terminal cysteine residue were a substrate of EpiD | 
SFNSYCC--NH2 (SFNSYCC-NH2; cysteine pairing not given here) [the amide of SFNSYCC] | - | not substrates of EpiD | 
